Test results taken from publication PMC7440162 (Cell, 2020).

B1: IL1RAPL1 ECD-Fc (Fc fusion)
chain: LKVVTKRGSADGCTDWSIDIKKYQVLVGEPVRIKCALFYGYIRTNYSLAQSAGLSLMWYKSSGPGDFEEPIAFDGSRMSKEEDSIWFRPTLLQDSGLYACVIRNSTYCMKVSISLTVGENDTGLCYNSKMKYFEKAELSKSKEISCRDIEDFLLPTREPEILWYKECRTKTWRPSIVFKRDTLLIREVREDDIGNYTCELKYGGFVVRRTTELTVTAPLTDKPPKLLYPMESKLTIQETQLGDSANLTCRAFFGYSGDVSPLIYWMKGEKFIEDLDENRVWESDIRILKEHLGEQEVSISLIVDSVEEGDLGNYSCYVENGNGRRHASVLLHKRELMYT
modifications: biotin on the AviTag (as SPR ligand)
B2: ICAM5 ECD-Fc (Fc fusion)
chain: EPFWADLQPRVAFVERGGSLWLNCSTNCPRPERGGLETSLRRNGTQRGLRWLARQLVDIREPETQPVCFFRCARRTLQARGLIRTFQRPDRVELMPLPPWQPVGENFTLSCRVPGAGPRASLTLTLLRGAQELIRRSFAGEPPRARGAVLTATVLARREDHGANFSCRAELDLRPHGLGLFENSSAPRELRTFSLSPDAPRLAAPRLLEVGSERPVSCTLDGLFPASEARVYLALGDQNLSPDVTLEGDAFVATATATASAEQEGARQLVCNVTLGGENRETRENVTIYSFPAPLLTLSEPSVSEGQMVTVTCAAGAQALVTLEGVPAAVPGQPAQLQLNATENDDRRSFFCDATLDVDGETLIKNRSAELRVLYAPRLDDSDCPRSWTWPEGPEQTLRCEARGNPEPSVHCARSDGGAVLALGLLGPVTRALSGTYRCKAANDQGEAVKDVTLTVEYAPALDSVGCPERITWLEGTEASLSCVAHGVPPPDVICVRSGELGAVIEGLLRVAREHAGTYRCEATNPRGSAAKNVAVTVEYGPRFEEPSCPSNWTWVEGSGRLFSCEVDGKPQPSVKCVGSGGATEGVLLPLAPPDPSPRAPRIPRVLAPGIYVCNATNRHGSVAKTVVVSAESPPEMDESTCPSHQTWLEGAEASALACAARGRPSPGVRCSREGIPWPEQQRVSREDAGTYHCVATNAHGTDSRTVTVGVEYRPVVAELAASPPGGVRPGGNFTLTCRAEAWPPAQISWRAPPGALNIGLSSNNSTLSVAGAMGSHGGEYECAATNAHGRHARRITVRVAGPW
modifications: biotin on the AviTag (as SPR ligand)
B3: WFIKKN2-Fc (Fc fusion)
chain: LPPIRYSHAGICPNDMNPNLWVDAQSTCRRECETDQECETYEKCCPNVCGTKSCVAARYMDVKGKKGPVGMPKEATCDHFMCLQQGSECDIWDGQPVCKCKDRCEKEPSFTCASDGLTYYNRCYMDAEACSKGITLAVVTCRYHFTWPNTSPPPPETTMHPTTASPETPELDMAAPALLNNPVHQSVTMGETVSFLCDVVGRPRPEITWEKQLEDRENVVMRPNHVRGNVVVTNIAQLVIYNAQLQDAGIYTCTARNVAGVLRADFPLSVVRGHQAAATSESSPNGTAFPAAECLKPPDSEDCGEEQTRWHFDAQANNCLTFTFGHCHRNLNHFETYEACMLACMSGPLAACSLPALQGPCKAYAPRWAYNSQTGQCQSFVYGGCEGNGNNFESREACEESCPFPRGNQRCRACKPRQKLVTSFCRSDFVILGRVSELTEEPDSGRALVTVDEVLKDEKMGLKFLGQEPLEVTLLHVDWACPCPNVTVSEMPLIIMGEVDGGMAMLRPDSFVGASSARRVRKLREVMHKKTCDVLKEFLGLH
modifications: biotin on the AviTag (as SPR ligand)
B4: LTF-Fc (Fc fusion)
chain: GRRRSVQWCAVSQPEATKCFQWQRNMRKVRGPPVSCIKRDSPIQCIQAIAENRADAVTLDGGFIYEAGLAPYKLRPVAAEVYGTERQPRTHYYAVAVVKKGGSFQLNELQGLKSCHTGLRRTAGWNVPIGTLRPFLNWTGPPEPIEAAVARFFSASCVPGADKGQFPNLCRLCAGTGENKCAFSSQEPYFSYSGAFKCLRDGAGDVAFIRESTVFEDLSDEAERDEYELLCPDNTRKPVDKFKDCHLARVPSHAVVARSVNGKEDAIWNLLRQAQEKFGKDKSPKFQLFGSPSGQKDLLFKDSAIGFSRVPPRIDSGLYLGSGYFTAIQNLRKSEEEVAARRARVVWCAVGEQELRKCNQWSGLSEGSVTCSSASTTEDCIALVLKGEADAMSLDGGYVYTAGKCGLVPVLAENYKSQQSSDPDPNCVDRPVEGYLAVAVVRRSDTSLTWNSVKGKKSCHTAVDRTAGWNIPMGLLFNQTGSCKFDEYFSQSCAPGSDPRSNLCALCIGDEQGENKCVPNSNERYYGYTGAFRCLAENAGDVAFVKDVTVLQNTDGNNNEAWAKDLKLADFALLCLDGKRKPVTEARSCHLAMAPNHAVVSRMDKVERLKQVLLHQQAKFGRNGSDCPDKFCLFQSETKNLLFNDNTECLARLHGKTTYEKYLGPQYVAGITNLKKCSTSPLLEACEFLRK
modifications: biotin on the AviTag (as SPR ligand)

Key:
Experiment in all cases: SPR
PTPRS ECD-Fc = target: T1, PTPRS ECD-Fc (human, UniProt Q13332 30-1282)
T1 sequence: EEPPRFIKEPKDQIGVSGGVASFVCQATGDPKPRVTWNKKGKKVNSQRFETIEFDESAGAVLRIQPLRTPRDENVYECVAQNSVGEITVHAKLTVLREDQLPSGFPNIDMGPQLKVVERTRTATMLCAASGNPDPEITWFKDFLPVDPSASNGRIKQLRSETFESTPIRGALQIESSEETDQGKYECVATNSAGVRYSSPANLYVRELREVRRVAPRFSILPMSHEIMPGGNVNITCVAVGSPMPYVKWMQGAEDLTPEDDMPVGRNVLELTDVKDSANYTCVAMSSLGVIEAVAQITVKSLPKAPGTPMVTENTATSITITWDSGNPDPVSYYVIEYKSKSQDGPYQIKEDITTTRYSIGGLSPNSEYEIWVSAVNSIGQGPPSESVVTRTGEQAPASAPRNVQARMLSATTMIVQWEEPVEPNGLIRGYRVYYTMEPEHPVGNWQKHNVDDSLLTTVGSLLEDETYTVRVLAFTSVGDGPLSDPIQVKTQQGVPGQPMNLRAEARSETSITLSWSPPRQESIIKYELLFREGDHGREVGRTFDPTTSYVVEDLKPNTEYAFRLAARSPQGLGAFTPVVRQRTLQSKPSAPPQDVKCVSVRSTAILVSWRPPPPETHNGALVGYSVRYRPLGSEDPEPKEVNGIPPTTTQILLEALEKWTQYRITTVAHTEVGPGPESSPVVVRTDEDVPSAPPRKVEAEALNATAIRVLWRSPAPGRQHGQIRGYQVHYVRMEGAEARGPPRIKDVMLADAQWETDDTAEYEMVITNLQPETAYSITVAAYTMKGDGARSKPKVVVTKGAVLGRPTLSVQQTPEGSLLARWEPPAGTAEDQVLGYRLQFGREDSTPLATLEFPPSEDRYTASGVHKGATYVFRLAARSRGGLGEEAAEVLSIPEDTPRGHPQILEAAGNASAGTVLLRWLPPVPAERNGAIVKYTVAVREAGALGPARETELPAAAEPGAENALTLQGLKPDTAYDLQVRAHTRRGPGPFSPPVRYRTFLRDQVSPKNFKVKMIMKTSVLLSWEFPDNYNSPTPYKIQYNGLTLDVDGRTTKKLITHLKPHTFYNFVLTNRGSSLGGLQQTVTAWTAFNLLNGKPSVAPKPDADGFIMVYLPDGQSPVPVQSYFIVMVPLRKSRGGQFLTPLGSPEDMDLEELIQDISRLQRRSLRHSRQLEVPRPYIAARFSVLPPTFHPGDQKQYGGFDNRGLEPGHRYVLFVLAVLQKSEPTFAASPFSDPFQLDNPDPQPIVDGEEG

PRTG ECD-Fc = target: T2, PRTG ECD-Fc (human, UniProt Q2VWP7 36-949)
T2 sequence: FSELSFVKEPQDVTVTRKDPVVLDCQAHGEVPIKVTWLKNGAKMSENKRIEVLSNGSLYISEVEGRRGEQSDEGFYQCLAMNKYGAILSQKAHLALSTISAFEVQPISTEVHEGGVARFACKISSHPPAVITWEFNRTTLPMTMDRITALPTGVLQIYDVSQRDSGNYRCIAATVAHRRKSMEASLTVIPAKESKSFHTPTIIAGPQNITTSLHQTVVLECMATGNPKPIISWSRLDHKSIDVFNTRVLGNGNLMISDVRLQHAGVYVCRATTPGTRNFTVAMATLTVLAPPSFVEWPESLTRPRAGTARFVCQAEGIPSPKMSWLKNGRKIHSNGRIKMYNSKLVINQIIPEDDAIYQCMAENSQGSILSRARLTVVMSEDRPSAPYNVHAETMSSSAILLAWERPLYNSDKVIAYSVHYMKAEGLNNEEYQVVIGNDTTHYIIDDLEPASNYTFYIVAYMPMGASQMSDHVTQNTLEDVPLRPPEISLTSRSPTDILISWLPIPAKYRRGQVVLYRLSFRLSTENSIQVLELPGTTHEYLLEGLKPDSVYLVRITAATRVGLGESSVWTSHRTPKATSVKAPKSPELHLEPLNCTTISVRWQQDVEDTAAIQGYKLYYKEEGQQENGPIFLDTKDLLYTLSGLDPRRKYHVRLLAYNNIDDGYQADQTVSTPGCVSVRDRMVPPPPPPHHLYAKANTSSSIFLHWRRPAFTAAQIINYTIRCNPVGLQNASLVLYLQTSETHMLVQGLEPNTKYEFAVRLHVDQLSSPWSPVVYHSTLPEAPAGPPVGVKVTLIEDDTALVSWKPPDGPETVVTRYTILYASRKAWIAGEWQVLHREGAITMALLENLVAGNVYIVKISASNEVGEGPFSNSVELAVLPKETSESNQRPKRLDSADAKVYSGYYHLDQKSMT

human ISLR2 ECD-Fc = target: T3, human ISLR2 ECD-Fc (human, UniProt Q6UXK2 19-589, biotin on the AviTag (as SPR ligand))
T3 sequence: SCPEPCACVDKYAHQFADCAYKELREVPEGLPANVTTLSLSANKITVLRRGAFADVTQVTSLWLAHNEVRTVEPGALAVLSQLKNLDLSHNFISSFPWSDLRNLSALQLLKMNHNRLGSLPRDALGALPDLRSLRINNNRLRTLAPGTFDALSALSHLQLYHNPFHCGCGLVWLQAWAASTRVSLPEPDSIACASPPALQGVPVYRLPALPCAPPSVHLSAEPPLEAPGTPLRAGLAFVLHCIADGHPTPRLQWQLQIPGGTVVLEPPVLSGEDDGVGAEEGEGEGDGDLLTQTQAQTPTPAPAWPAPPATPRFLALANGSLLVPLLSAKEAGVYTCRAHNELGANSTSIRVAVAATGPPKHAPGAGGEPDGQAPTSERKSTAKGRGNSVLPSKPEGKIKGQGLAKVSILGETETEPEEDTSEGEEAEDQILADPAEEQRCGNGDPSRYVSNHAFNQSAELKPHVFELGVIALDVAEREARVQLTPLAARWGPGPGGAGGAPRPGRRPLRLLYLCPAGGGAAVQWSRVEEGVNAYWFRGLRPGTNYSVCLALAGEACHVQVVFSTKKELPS

binding result (PTPRS ECD-Fc)	binding result (PRTG ECD-Fc)	binding result (human ISLR2 ECD-Fc)	Binder
binds	–	–	B1
–	binds	–	B2
–	binds	binds	B3
–	binds	–	B4
